# In patent US20170275366A1 (Pfizer, published 2017):
# B1: MR1-V5 CAR (other)
# chain: QVQLQQSGGGLVKPGASLKLSCVTSGFTFRKFGMSWVRQTSDKRLEWVASISTGGYNTYYSDNVKGRFTISRENAKNTLYLQMSSLKSEDTALYYCTRGYSSTSYAMDYWGQGTTVTVGGGGSGGGGSGGGGSDIELTQSPASLSVATGEKVTIRCMTSTDIDDDMNWYQQKPGEPPKFLISEGNTLRPGVPSRFSSSGTGTDFVFTIENTLSEDVGDYYCLQSFNVPLTFGDGTKLEKALEPKSPDKTHTCPPCPAPPVAGPSVFLFPPKPKDTLMIARTPEVTCVVVDVSHEDPEVKFNWYVDGVEVHNAKTKPREEQYNSTYRVVSVLTVLHQDWLNGKEYKCKVSNKALPAPIEKTISKAKGQPREPQVYTLPPSRDELTKNQVSLTCLVKGFYPSDIAVEWESNGQPENNYKTTPPVLDSDGSFFLYSKLTVDKSRWQQGNVFSCSVMHEALHNHYTQKSLSLSPGKKDPKIYIWAPLAGTCGVLLLSLVITLYCKRGRKKLLYIFKQPFMRPVQTTQEEDGCSCRFPEEEEGGCELRVKFSRSADAPAYQQGQNQLYNELNLGRREEYDVLDKRRGRDPEMGGKPRRKNPQEGLYNELQKDKMAEAYSEIGMKGERRRGKGHDGLYQGLSTATKDTYDALHMQALPPR
# notes: Chimeric antigen receptor on the surface of primary T cells; It has the MR1 scFv, IgG1 hinge, CD8 alpha TM, 4-1BB and CD3 zeta; also called 27
# B2: 139-V3 CAR (other)
# chain: DIQMTQSPSSLSASVGDRVTITCRASQGIRNNLAWYQQKPGKAPKRLIYAASNLQSGVPSRFTGSGSGTEFTLIVSSLQPEDFATYYCLQHHSYPLTSGGGTKVEIKGGGGSGGGGSGGGGSEVQVLESGGGLVQPGGSLRLSCAASGFTFSSYAMSWVRQAPGKGLEWVSAISGSGGSTNYADSVKGRFTISRDNSKNTLYLQMNSLRAEDTAVYYCAGSSGWSEYWGQGTLVTVSSTTTPAPRPPTPAPTIASQPLSLRPEACRPAAGGAVHTRGLDFACDIYIWAPLAGTCGVLLLSLVITLYCKRGRKKLLYIFKQPFMRPVQTTQEEDGCSCRFPEEEEGGCELRVKFSRSADAPAYQQGQNQLYNELNLGRREEYDVLDKRRGRDPEMGGKPRRKNPQEGLYNELQKDKMAEAYSEIGMKGERRRGKGHDGLYQGLSTATKDTYDALHMQALPPR
# notes: Chimeric antigen receptor on the surface of primary T cells (mRNA transfection); also called CARs 139-V3; 24
# B3: MR1-V3 CAR (other)
# chain: QVQLQQSGGGLVKPGASLKLSCVTSGFTFRKFGMSWVRQTSDKRLEWVASISTGGYNTYYSDNVKGRFTISRENAKNTLYLQMSSLKSEDTALYYCTRGYSSTSYAMDYWGQGTTVTVGGGGSGGGGSGGGGSDIELTQSPASLSVATGEKVTIRCMTSTDIDDDMNWYQQKPGEPPKFLISEGNTLRPGVPSRFSSSGTGTDFVFTIENTLSEDVGDYYCLQSFNVPLTFGDGTKLEKALTTTPAPRPPTPAPTIASQPLSLRPEACRPAAGGAVHTRGLDFACDIYIWAPLAGTCGVLLLSLVITLYCKRGRKKLLYIFKQPFMRPVQTTQEEDGCSCRFPEEEEGGCELRVKFSRSADAPAYQQGQNQLYNELNLGRREEYDVLDKRRGRDPEMGGKPRRKNPQEGLYNELQKDKMAEAYSEIGMKGERRRGKGHDGLYQGLSTATKDTYDALHMQALPPR
# notes: Chimeric antigen receptor on the surface of primary T cells; It has the MR1 scFv (VH, (G4S)3 linker, VL), CD8 alpha hinge, CD8 alpha TM, 4-1BB and CD3 zeta; also called 26
# B4: 139-V5 CAR (other)
# chain: DIQMTQSPSSLSASVGDRVTITCRASQGIRNNLAWYQQKPGKAPKRLIYAASNLQSGVPSRFTGSGSGTEFTLIVSSLQPEDFATYYCLQHHSYPLTSGGGTKVEIKGGGGSGGGGSGGGGSEVQVLESGGGLVQPGGSLRLSCAASGFTFSSYAMSWVRQAPGKGLEWVSAISGSGGSTNYADSVKGRFTISRDNSKNTLYLQMNSLRAEDTAVYYCAGSSGWSEYWGQGTLVTVSSEPKSPDKTHTCPPCPAPPVAGPSVFLFPPKPKDTLMIARTPEVTCVVVDVSHEDPEVKFNWYVDGVEVHNAKTKPREEQYNSTYRVVSVLTVLHQDWLNGKEYKCKVSNKALPAPIEKTISKAKGQPREPQVYTLPPSRDELTKNQVSLTCLVKGFYPSDIAVEWESNGQPENNYKTTPPVLDSDGSFFLYSKLTVDKSRWQQGNVFSCSVMHEALHNHYTQKSLSLSPGKKDPKIYIWAPLAGTCGVLLLSLVITLYCKRGRKKLLYIFKQPFMRPVQTTQEEDGCSCRFPEEEEGGCELRVKFSRSADAPAYQQGQNQLYNELNLGRREEYDVLDKRRGRDPEMGGKPRRKNPQEGLYNELQKDKMAEAYSEIGMKGERRRGKGHDGLYQGLSTATKDTYDALHMQALPPR
# notes: Chimeric antigen receptor on the surface of primary T cells; also called CARs 139-V5; 25
# Target: T1, recombinant protein consisting of the extracellular domain of the human EGFRVIII protein fused with a murine … (human; murine, UniProt P00533 25-645)
# T1 construct: extracellular domain; It is described in the general methods as the reagent for detecting CAR on T cells by flow cytometry; also called EGFRvIII-mouse Fc detection reagent; not shown: murine IgG1 Fc fragment
# Test: flow cytometry of CAR on primary T cells; by the general methods detected through binding of EGFRvIII ECD-mouse IgG1 Fc and a PE anti-mouse Fc antibody
# Experimental: Transduction of T-cells with recombinant lentiviral vectors expression the CAR was carried out three days after T-cell purification/activation. Lentiviral vectors produced by Vectalys SA (Toulouse, France) by transfection of genomic and helper plasmids in HEK-293 cells may be used. Transductions were carried out at a multiplicity of infection of 5. CAR detection at the surface of T-cells is performed using a recombinant protein consisting on the extracellular domain of the human […] protein fused together with a murine IgG1 Fc fragment (produced by LakePharma). Binding of this protein to the CAR molecule is detected with a PE-conjugated secondary antibody (Jackson lmmunoresearch) targeting the mouse Fc portion of the protein, and analyzed by flow cytometry.
row,Binder,binding result
1,B1,binds
2,B2,binds
3,B3,binds
4,B4,binds
